Experimental data taken from EP4484563A1.

Columns and labels:
Experiment in all cases: cell-based or functional assay
human CD8a (human) = human CD8a (human) (UniProt P01732)
CD14 = target: T1, CD14 (UniProt P08571)
T1 sequence: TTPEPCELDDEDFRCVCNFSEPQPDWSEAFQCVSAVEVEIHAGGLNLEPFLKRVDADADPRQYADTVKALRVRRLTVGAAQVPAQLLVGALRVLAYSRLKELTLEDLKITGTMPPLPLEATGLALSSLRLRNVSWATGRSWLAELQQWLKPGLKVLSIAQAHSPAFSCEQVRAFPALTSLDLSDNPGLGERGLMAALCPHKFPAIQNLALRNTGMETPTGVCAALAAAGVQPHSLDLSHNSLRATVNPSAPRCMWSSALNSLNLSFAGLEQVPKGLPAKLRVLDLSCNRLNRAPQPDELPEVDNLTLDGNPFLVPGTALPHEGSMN

[1] = target: T cell receptor (TCRab) (human)

Chain of UniProt P01732 (P01732 22-235): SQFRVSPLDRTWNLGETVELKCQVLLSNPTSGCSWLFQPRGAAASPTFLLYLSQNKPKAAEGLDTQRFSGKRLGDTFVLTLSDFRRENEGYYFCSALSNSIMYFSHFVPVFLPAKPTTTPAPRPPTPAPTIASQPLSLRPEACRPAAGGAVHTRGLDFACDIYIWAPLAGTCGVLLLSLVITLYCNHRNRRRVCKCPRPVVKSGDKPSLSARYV

B1: membrane anchored VHH targeting human CD8a (VHH)
VHH: EVQLVESGGGLVQPGGSLRLSCAASGFTFDDYVIGWFRQAPGKGREGVACIRIFDRHTYYADSVKGRFTISSDNSKNTVYLQMNSLRAEDTATYYCAAGSFFGCTRPEGDMDYFGQGTLVQVQS
percentage transduction of target negative cells (flow cytometry, day 7) (human CD8a (human)): < 1%

B2: membrane anchored anti-CD14 scFv (scFv)
scFv: DDVQLQQSGPGLVKPSQSLSLTCTVTGYSITSDSAWNWIRQFPGNRLEWMGYISYSGSTSYNPSLKSRISITRDTSKNQFFLQLNSVTTEDTATYYCVRGLRFAYWGQGTLVTVSSGGGGSGGGGSGGGGSDIVLTQSPASLAVSLGQRATISCRASESVDSYVNSFLHWYQQKPGQPPKLLIYRASNLQSGIPARFSGSGSRTDFTLTINPVEADDVATYYCQQSNEDPYTFGGGTKLEIK
percentage transduction of primary monocytes versus non-stimulated PBMCs (GFP, flow cytometry, day 7) (CD14): < 2%

B3: TCRab VHH (VHH)
VHH: EVQLVESGGGLVQPGGSLRLSCAASGDVHKINILGWYRQAPAKEREMVAHITIGDATDYADSAKGRFTISRDEAKNMVYLQMNSLKPEDTAVYFCRAYSRIYPYNYWGQGTLVTVSS
percentage transduction of target negative cells (flow cytometry, day 7) [1]: < 1%

B4: Nanobody (VHH) CD14 3RMB1 (VHH)
VHH: QVQLQESGGGLVQSGGSLRLSCAVSGSIFSIVDMGWYRQAPGKGRELVAELSDGSTNYADSVLGRFTISRDNAKNTVYLQMNSLKPEDTAVYYCNADLTGSSWSPYRYLEVWGQGTQVTVSS
percentage transduction of target negative cells (flow cytometry, 7-14 days) (CD14): < 1%
